# T1: UmuDAb (Acinetobacter baumannii ATCC 17978 JH, UniProt A0A0D5YJU0 1-203)
# T1 sequence: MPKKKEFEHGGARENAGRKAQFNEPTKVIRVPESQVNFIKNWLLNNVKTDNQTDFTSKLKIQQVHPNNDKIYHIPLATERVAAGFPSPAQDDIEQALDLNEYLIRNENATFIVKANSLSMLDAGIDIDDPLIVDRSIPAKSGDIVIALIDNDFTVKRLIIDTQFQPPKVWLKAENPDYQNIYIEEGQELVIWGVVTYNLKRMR
# B1: L2C31-2 (dsDNA)
# DNA 1: TCGTCAACCCAGAAATTCAACTTTTTCAAGTTACATT
# DNA 2: AATGTAACTTGAAAAAGTTGAATTTCTGGGTTGACGA
# B2: L2C34-5 (dsDNA)
# DNA 1: TCGTCAACCCAGAAATGTAGATTTTTCAAGTTACATT
# DNA 2: AATGTAACTTGAAAAAATTACATTTCTGGGTTGACGA
# B3: LR3 (dsDNA)
# DNA 1: TCGTCAACCCAGAAATGTAACTTTTCTGGGTTACATT
# DNA 2: AATGTAACCCAGAAAAGTTACATTTCTGGGTTGACGA
# B4: WT 37 bp UmuDAb operator probe (dsDNA)
# DNA 1: TCGTCAACTTGAAAATGTAACTTTTTCAAGTTACATT
# DNA 2: AATGTAACTTGAAAAAGTTACATTTTCAAGTTGACGA
# B5: L2 labeled probe (dsDNA)
# DNA 1: TCGTCAACCCAGAAATGTAACTTTTTCAAGTTACATT
# DNA 2: AATGTAACTTGAAAAAGTTACATTTCTGGGTTGACGA
# B6: R1 (dsDNA)
# DNA 1: TCGTCAACTCAAAAATGTAACTTTTTCAAGTTACATT
# DNA 2: AATGTAACTTGAAAAAGTTACATTTTTGAGTTGACGA
# B7: L1 (dsDNA)
# DNA 1: TCGTCAACTTGAAAATGTAACTTTTTTGAGTTACATT
# DNA 2: AATGTAACTCAAAAAAGTTACATTTTCAAGTTGACGA
# B8: R2 (dsDNA)
# DNA 1: TCGTCAACTTGAAAATGTAACTTTTCTGGGTTACATT
# DNA 2: AATGTAACCCAGAAAAGTTACATTTTCAAGTTGACGA
# B9: C3 (dsDNA)
# DNA 1: TCGTCAACTTGAAAATTCAGATTTTTCAAGTTACATT
# DNA 2: AATGTAACTTGAAAAATCTGAATTTTCAAGTTGACGA
# How the values were obtained:
# [1] = target: T1, UmuDAb; assay: competition; 100x competitor; also fails vs L2-labeled probe (Fig S3); […] (10x = 100 mM Tris, 500 mM KCl, 10 mM DTT, […]; details: protein: recombinant, chain copies: 2, blunt
# [2] = target: T1, UmuDAb; assay: competition; 100x competitor; […] (10x = 100 mM Tris, 500 mM KCl, 10 mM DTT, […]; details: protein: recombinant; chain copies: 2; blunt
# [3] = target: UmuDAb A83Y (Acinetobacter baumannii ATCC 17978 JH, UniProt A0A0D5YJU0 1-203, A83Y); assay: EMSA; Hill 4.65; legend gives 69 nM; […] (10x = 100 mM Tris, 500 mM KCl, 10 mM DTT, […]; details: protein: recombinant; chain copies: 2; label: 5' IRDye700 on both strands; blunt
# [4] = target: UmuDAb W192X (Acinetobacter baumannii ATCC 17978 JH, UniProt A0A0D5YJU0 1-191); assay: EMSA; Hill 6.1; 60-70% bound above 1 uM; […] (10x = 100 mM Tris, 500 mM KCl, 10 mM DTT, […]; details: protein: recombinant; chain copies: 2; label: 5' IRDye700 on both strands; blunt
# [5] = target: T1, UmuDAb; assay: EMSA; Hill 4.9; EMSA: LI-COR Odyssey binding buffer (10x = 100 mM Tris, 500 mM KCl, 10 mM DTT, pH 7.5), 25 mM DTT, 1 ug/uL poly(dI-dC), 200 fmol probe per 20 uL, 20 min at room temperature; 5% TBE gel run at 4 C; details: protein: recombinant; chain copies: 2; label: 5' IRDye700 on both strands; blunt
# [6] = target: UmuDAb HTH1 (Acinetobacter baumannii ATCC 17978 JH, UniProt A0A0D5YJU0 1-203, E24K); assay: EMSA; Hill 6.1; 94% bound; […] (10x = 100 mM Tris, 500 mM KCl, 10 mM DTT, […]; details: protein: recombinant; chain copies: 2; label: 5' IRDye700 on both strands; blunt
# [7] = target: UmuDAb R201X (Acinetobacter baumannii ATCC 17978 JH, UniProt A0A0D5YJU0 1-200); assay: EMSA; 60-70% bound above 1 uM; […] (10x = 100 mM Tris, 500 mM KCl, 10 mM DTT, […]; details: protein: recombinant; chain copies: 2; label: 5' IRDye700 on both strands; blunt
# [8] = target: UmuDAb HTH2 (Acinetobacter baumannii ATCC 17978 JH, UniProt A0A0D5YJU0 1-203, K40P;N41P); assay: EMSA; Hill 10.8; 78% bound; […] (10x = 100 mM Tris, 500 mM KCl, 10 mM DTT, […]; details: protein: recombinant; chain copies: 2; label: 5' IRDye700 on both strands; blunt
# [9] = target: UmuDAb N100D (Acinetobacter baumannii ATCC 17978 JH, UniProt A0A0D5YJU0 1-203, N100D); assay: EMSA; Bmax < 0.90; […] (10x = 100 mM Tris, 500 mM KCl, 10 mM DTT, […]; details: protein: recombinant; chain copies: 2; label: 5' IRDye700 on both strands; blunt
# [10] = target: UmuDAb G124D (Acinetobacter baumannii ATCC 17978 JH, UniProt A0A0D5YJU0 1-203, G124D); assay: as above; details: protein: recombinant; chain copies: 2; label: 5' IRDye700 on both strands; blunt
# [11] = target: T1, UmuDAb; assay: EMSA; no higher MW second band; […] (10x = 100 mM Tris, 500 mM KCl, 10 mM DTT, […]; details: protein: recombinant; chain copies: 2; blunt
# [12] = target: T1, UmuDAb; assay: competition; 100x competitor; not different from WT; […] (10x = 100 mM Tris, 500 mM KCl, 10 mM DTT, […]; details: protein: recombinant; chain copies: 2; blunt
binder,measurement,setting,value
B1,binding result,[1],no binding
B2,binding result,[1]; 2 mismatches in core as printed,no binding
B3,binding result,[2],no binding
B4,Kd,[3],0.07 µM
same,Kd,[4],0.54 µM
same,Kd,[5],0.0389 µM
same,Kd,[6],0.099 µM
same,Kd,[7],0.353 µM
same,Kd,[8],0.114 µM
same,Kd,[9],0.306 µM
same,Kd,[10],0.39 µM
B5,binding signal,[11],~0.75 Kd ratio to WT probe
B6,binding result,[12],binds
B7,binding result,[12],binds
B8,binding result,[12],binds
B9,binding result,[2],no binding

# From paper PMC11332147, “Repression of Acinetobacter baumannii DNA damage response requires DdrR-assisted binding of UmuDAb dimers to atypical SOS box”
